# In publication PMC4679584:
# Target: tumor suppressor gene 101 (TSG101) tagged with eYFP (UniProt Q99816)
# Test: FRET or BRET
# UniProt Q99816, sequence (Q99816 whole entry): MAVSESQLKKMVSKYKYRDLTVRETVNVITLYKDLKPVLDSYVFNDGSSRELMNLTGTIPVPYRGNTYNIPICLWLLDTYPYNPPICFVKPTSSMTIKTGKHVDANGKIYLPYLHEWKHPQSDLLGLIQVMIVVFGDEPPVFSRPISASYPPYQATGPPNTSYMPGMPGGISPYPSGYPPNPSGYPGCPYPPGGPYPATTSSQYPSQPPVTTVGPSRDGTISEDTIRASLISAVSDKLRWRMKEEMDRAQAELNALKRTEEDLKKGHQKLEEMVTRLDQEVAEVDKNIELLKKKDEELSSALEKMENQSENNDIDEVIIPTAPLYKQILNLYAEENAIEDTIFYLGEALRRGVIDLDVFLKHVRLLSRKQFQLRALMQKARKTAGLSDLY
substance,measurement,value
"wild-type HEV ORF3 protein (Kernow-C1 P6, genotype 3) tagged with eCFP (natural protein)",FRET efficiency,21.5%
